US9163227B2, “Anti-diabetic compounds” (PFIZER INC., priority 2011, dated 2015)
Where two headings read alike, the source gives them in different places. Marks after values point to notes of the source that are not given here.

Legend:
ob/ob mice = experiment: Oral glucose tolerance test in ob/ob mice (FGF21 conjugates); type: in vivo; conditions: for mean glucose AUC % during OGTT: FIG. 6B; for Mean Glucose AUC (% of vehicle control) during OGTT: FIGS. 4A/4B
Experimental: (§1) The efficacy of FGF21 antibodies conjugates was evaluated in two murine obese insulin resistant models—ob/ob mice and high-fat diet-induced obese mice. For both models, male mice (6-8 weeks of age for ob/ob, 12-14 weeks of age for DIO with high-fat diet initiated at 6 weeks of age) were housed 2-4/cage and FGF21 antibody conjugates were administered by SC injection. Body weight was measured daily in the morning. Glucose tolerance was assessed by oral glucose tolerance test. Briefly, mice were fasted for 4-5 hrs in the morning of the day of testing. A basal blood sample was obtained and blood glucose levels were determined using a portable glucometer.

[1] = molecular target: Glut1 mRNA expression in differentiated 3T3-L1 adipocytes (Mus musculus, UniProt P16092+Q99N32); experiment: Glut1 Taqman assay; type: cell-based
Experimental: Differentiated 3T3-L1 adipocytes were used to measure the Glut1 mRNA expression by qPCR method. Overnight serum starved day 10-14 differentiated 3T3-L1 adipocytes were treated with compounds for 6 hrs. Total RNA was extracted from these cells, and Glut1 and GAPDH mRNA expression was measured using a Quantitect Probe RT-PCR kit and running a quantitative real time PCR reaction in a Taqman machine (Applied Biosystems®). The bioactivity of the compounds was determined by a fold change in Glut1 mRNA levels normalized by the GAPDH mRNA levels from each sample. EC═values as measurements of the potency of the compounds were obtained from the dose response curves in the assay.
3T3-L1 adipocytes were seeded at day 8 in 24-well tissue culture plates (Falcon®, Cat#353047), and incubated in DMEM complete medium (10% FBS, 2 mM L-glutamine, 1% P/S) at 37° C., 5% CO2. […] The medium was aspirated, and then RNA extracted from the cells using the RNeasy mini Kit according to the manufacturer's instructions. RNA was measured at A260 nm using the Spectramax® Plus spectrophotometer.
In Glut1 Taqman assay, differentiated 3T3-L1 adipocytes were used to measure the Glut1 mRNA expression by real-time quantitative PCR (qPCR) method described below. Overnight serum starved day 10-14 differentiated 3T3-L1 adipocytes were treated with compounds for 6 hrs. Total RNA was extracted from these cells, and Glut1 and GAPDH mRNA expression was measured using a Quantitect Probe RT-PCR kit and running a real time quantitative PCR reaction in a Taqman machine. The bioactivity of the compounds was determined by a fold change in Glut1 mRNA levels normalized by the GAPDH mRNA levels from each sample. In cAMP assay, Chinese hamster ovary (CHO) cells over-expressing human GLP-1R(CHO-hGLP-1R) were seeded in 96-well plates in serum-free medium with 300 uM IBMX. Cells were incubated with compounds at RT for 1 hr. The cAMP levels were measured using a CisBio cAMP Kit according to manufacturer's instructions. The bioactivity of the compounds was determined by the EC50 values obtained from the assay (see Table 42).

[2] = tested on: high-fat diet-induced obese mice; experiment: Serum lipids in DIO mice; type: in vivo; conditions: day 10, 1 mg/kg QD
[3] = tested on: high-fat diet-induced obese mice; experiment: Oral glucose tolerance test in DIO mice (FGF21 conjugates); type: in vivo; conditions: day 10, 1 mg/kg QD
Experimental: as §1

[4] = Body weight and liver weight in ob/ob mice; type: in vivo; conditions: for mean liver weight: FIG. 5B
Experimental: as §1

[5] = Mouse pharmacokinetics of FGF21 antibody conjugates; type: in vivo, Swiss-Webster mice; conditions: mouse PK; antibody conjugate at the named site (protein for FGF21ΔH)
Experimental: The PK of FGF21 antibody conjugates were examined in mice after IV or SC administration. […] Antibody conjugates concentrations in serum were determined using an ELISA which captured the FGF21 portion of the antibody conjugates through a monoclonal anti-hFGF21 antibody bound to a 96-well plate. FGF21 antibody conjugates bound to the plate were detected through an anti-hFc monoclonal antibody, and concentrations were determined using a standard curve of the PK dosing solution diluted into serum-containing assay buffer. SC bioavailability was calculated as the ratio of the area-under the curve (AUC) of the SC serum concentration profile divided by the AUC of the IV serum concentration profile.

[6] = molecular target: differentiated 3T3-L1 adipocytes (Mus musculus, UniProt P16092+Q99N32); experiment: Glucose uptake assay; type: cell-based
Experimental: Differentiated 3T3-L1 adipocytes were treated with compounds in the absence of serum for 24 hrs. Cells were then incubated with ^14C-2-deoxyglucose for 1 hr and glucose uptake into the cells was quantitated in Wallac 1450 MicroBeta (Trilux) instrument. Glucose uptake was expressed in counts per min (CPM). EC50 values as measurements of the potency of the compounds were obtained from the dose response curves in the assay.

[7] = tested on: SCD1, MOGAT2, FoxA2 mRNA in liver; experiment: Hepatic gene expression (qPCR) in ob/ob mice; type: in vivo; conditions: day 6, 1 mg/kg QD
DIO mice = experiment: Sub-chronic and single dose efficacy of ABC-1 in DIO mice (body weight, food intake, OGTT, cholesterol, liver triglycerides); type: in vivo; conditions: Table 54: DIO mice, single SC 0.6 mg/kg
Experimental: Sub Chronic Dose Efficacy. […] All compounds were dosed SC once weekly, body weight and food intake was measured twice weekly, and an OGTT was conducted on day 17, 3 days after the 3rd weekly dose. On day 20, liver and serum samples were collected for lipid analysis.
All compounds were administered SC on day 0, body weight was measured twice weekly, and OGTT was conducted on day 7, 13, and 21. […] The sustained efficacy of the ABC-1 in vivo supports once weekly dosing of the compound.
Sub Chronic Dose Efficacy. […] All compounds were administered SC once weekly. Body weight was measured twice weekly, and an OGTT was conducted 3 days after the 3rd weekly dose.

[8] = Stability assay of FGF21ΔH-D79C; type: physicochemical
Experimental: FGF21ΔH-D790 mutant protein was produced in E. coli and purified as described above. FGF21ΔH-D790 was expressed from 1 L of culture. A 150 mg inclusion body was obtained and 85 mg purified protein was obtained, representing a 60% yield. To test the stability of FGF21ΔH-D790 as well as FGF21ΔH (SEQ ID NO:2), freshly thawed samples were kept at 4° C. over seven days, and examined for their integrity by RP-HPLC, SEC_HPLC, Ellman assay and SDS-PAGE on day 0, 3 and 7. […] PBS (pH7.4) and 20 mM Tris-HCl 50 mM NaCl (pH7.5) made no significant difference of stability of FGF21ΔH-D79C.
It is possible that the solubility of FGF21ΔH-D79C may be reduced at pH6.0. The stability of FGF21ΔH-D79C was examined upon multiple freeze/thaw cycles. The proteins were repeated to freeze (−80 C) and thaw (4° C.) 9 times.

[9] = differentiated 3T3-L1 adipocytes, 6 hrs, protein or antibody conjugate as labelled, read-out: Glut1 Taqman assay EC50
[10] = 3T3-L1 adipocytes, 24 hrs, unconjugated protein

differentiated 3T3-L1 adipocytes, sequence (P16092 22-822): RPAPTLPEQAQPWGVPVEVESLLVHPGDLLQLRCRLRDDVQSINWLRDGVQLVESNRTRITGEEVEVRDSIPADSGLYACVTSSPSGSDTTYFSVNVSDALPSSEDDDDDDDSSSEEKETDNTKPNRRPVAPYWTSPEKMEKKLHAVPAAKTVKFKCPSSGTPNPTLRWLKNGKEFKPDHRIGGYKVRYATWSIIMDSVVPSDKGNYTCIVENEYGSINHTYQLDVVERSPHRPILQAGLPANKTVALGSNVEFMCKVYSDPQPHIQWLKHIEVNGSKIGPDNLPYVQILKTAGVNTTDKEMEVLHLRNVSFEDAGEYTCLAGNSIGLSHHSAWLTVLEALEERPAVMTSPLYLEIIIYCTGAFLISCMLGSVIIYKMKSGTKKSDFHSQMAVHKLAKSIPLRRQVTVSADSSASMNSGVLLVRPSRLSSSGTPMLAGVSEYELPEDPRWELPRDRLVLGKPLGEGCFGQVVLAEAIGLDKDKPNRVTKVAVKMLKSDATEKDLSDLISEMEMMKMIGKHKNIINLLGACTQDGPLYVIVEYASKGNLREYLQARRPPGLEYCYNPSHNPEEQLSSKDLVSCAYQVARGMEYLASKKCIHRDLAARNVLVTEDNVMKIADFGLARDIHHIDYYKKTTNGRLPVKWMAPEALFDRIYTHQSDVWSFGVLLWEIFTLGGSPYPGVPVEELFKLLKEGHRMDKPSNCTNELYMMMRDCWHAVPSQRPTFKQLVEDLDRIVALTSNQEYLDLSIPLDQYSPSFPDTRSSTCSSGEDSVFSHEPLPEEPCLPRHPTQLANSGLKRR
differentiated 3T3-L1 adipocytes, sequence (Q99N32 whole entry): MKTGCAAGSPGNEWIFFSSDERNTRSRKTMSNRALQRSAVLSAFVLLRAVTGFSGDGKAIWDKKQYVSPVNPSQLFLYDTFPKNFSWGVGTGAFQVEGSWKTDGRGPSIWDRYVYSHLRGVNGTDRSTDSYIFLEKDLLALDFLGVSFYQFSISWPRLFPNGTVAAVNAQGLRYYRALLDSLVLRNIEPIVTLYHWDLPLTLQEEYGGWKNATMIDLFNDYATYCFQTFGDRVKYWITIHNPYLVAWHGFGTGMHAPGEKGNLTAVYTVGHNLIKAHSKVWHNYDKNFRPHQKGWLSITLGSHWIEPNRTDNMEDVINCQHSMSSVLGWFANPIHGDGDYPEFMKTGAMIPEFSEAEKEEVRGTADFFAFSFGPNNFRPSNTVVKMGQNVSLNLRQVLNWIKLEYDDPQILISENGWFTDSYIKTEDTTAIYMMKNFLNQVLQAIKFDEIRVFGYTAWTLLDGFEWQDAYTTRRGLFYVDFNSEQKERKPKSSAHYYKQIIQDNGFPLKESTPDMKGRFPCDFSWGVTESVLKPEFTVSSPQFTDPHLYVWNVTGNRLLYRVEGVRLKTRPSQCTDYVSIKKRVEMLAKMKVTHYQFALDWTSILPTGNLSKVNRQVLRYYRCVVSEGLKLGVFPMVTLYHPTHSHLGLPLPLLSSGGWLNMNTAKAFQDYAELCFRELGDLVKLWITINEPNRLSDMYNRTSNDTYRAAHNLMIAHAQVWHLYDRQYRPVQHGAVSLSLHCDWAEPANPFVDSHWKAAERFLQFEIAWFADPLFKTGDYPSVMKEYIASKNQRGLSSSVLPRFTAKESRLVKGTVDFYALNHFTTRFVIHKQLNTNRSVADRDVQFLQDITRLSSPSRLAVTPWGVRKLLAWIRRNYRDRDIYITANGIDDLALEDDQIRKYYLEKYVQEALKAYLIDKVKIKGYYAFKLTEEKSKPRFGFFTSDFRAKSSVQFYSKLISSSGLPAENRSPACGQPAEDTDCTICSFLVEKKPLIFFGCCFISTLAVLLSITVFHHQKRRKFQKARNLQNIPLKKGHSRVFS
Glut1 mRNA expression in differentiated 3T3-L1 adipocytes, sequence (P16092 22-822): as the sequence (P16092 22-822) above
Glut1 mRNA expression in differentiated 3T3-L1 adipocytes, sequence (Q99N32 whole entry): as the sequence (Q99N32 whole entry) above

B1: FGF21ΔH: FGF21 with H1 absent, L146 (SEQ ID NO:2), produced from E. coli (protein, listed as Homo sapiens)
chain: PIPDSSPLLQFGGQVRQRYLYTDDAQQTEAHLEIREDGTVGGAADQSPESLLQLKALKPGVIQILGVKTSRFLCQRPDGALYGSLHFDPEACSFRELLLEDGYNVYQSEAHGLPLHLPGNKSPHRDPAPRGPARFLPLPGLPPALPEPPGILAPQPPDVGSSDPLSMVGPSQGRSPSYAS
ob/ob mice; ob/ob mice, single dose, dose not given
  mean glucose AUC % during OGTT: 63%
ob/ob mice; ob/ob mice, single SC dose 0.6 mg/kg
  Mean Glucose AUC (% of vehicle control) during OGTT: 103 % of vehicle control
ob/ob mice; ob/ob mice, single SC dose 1 mg/kg
  Mean Glucose AUC (% of vehicle control) during OGTT: 74 % of vehicle control
ob/ob mice; ob/ob mice, OGTT on day 6, 1 mg/kg QD
  Mean Glucose AUC (% of vehicle control): 61** % of vehicle control
ob/ob mice; ob/ob mice, day 6, 1 mg/kg QD
  Glucose AUC during OGTT (% of vehicle control): 67*** % of vehicle control
ob/ob mice; protein, 1 mg/kg Qd
  GTT* (% AUC of Ctrl): 67 % AUC of Ctrl
[1]; 3T3-L1 adipocytes
  activity in Glut1 Taqman assay (in words): dose-dependent Glut1 induction
[1]; 3T3-L1 adipocytes, serum-free DMEM 0.2% BSA, 6 hrs, Taqman quantitative real-time PCR, read-out: Glut1 RNA expression EC50
  EC50: 3.39 nM
[1]; unconjugated FGF21 mutant protein, n in parentheses, read-out: Glut1 Taqman unconjugated Protein EC50
  EC50: 2.3 nM
[2]
  Mean values of serum lipids NEFA (mM) (SEM): 0.40 (0.04) mM
  Mean values of serum lipids TG (mg/dL) (SEM): 92 (9.6)** mg/dL
[3]
  Glucose AUC during OGTT (% of vehicle control): 75*** % of vehicle control
[4]; FIG. 5A, single SC dose 0.6 mg/kg
  Cumulative body weight change, mean body weight: 3.2 g
[4]; FIG. 5A, single SC dose 1 mg/kg
  Cumulative body weight change, mean body weight: 2.5 g
[4]; single SC dose 0.6 mg/kg
  mean liver weight: 2.4 g
[4]; single SC dose 1 mg/kg
  mean liver weight: 2.2 g
[4]; FIG. 6A, single dose, dose not given
  Cumulative body weight change, mean body weight: 1.9 g
[5]
  % SC BioAv: 96%
  IV T1/2: 24 min
  SC T1/2: 30 min
[6]; unconjugated protein (per Examples 18-21), n in parentheses
  EC50: 12 nM
[7]
  Mean fold change of mRNA expression, FoxA2 (SEM): 1.23 (0.08) fold
  Mean fold change of mRNA expression, MOGAT2 (SEM): 0.37 (0.05)** fold
  Mean fold change of mRNA expression, SCD1 (SEM): 0.95 (0.06) fold

B2: FGF21ΔH-K56R-K59-K69R-K122R: FGF21 lysine mutant, SEQ ID NO:19 (protein, listed as Homo sapiens)
chain: PIPDSSPLLQFGGQVRQRYLYTDDAQQTEAHLEIREDGTVGGAADQSPESLLQLRALKPGVIQILGVRTSRFLCQRPDGALYGSLHFDPEACSFRELLLEDGYNVYQSEAHGLPLHLPGNRSPHRDPAPRGPARFLPLPGLPPALPEPPGILAPQPPDVGSSDPLSMVGPSQGRSPSYAS
[1]; [9]
  EC50: 0.6 nM
[6]; [10]
  EC50: 0.9 nM

B3: FGF21ΔH-K56-K59R-K69R-K122: FGF21 lysine mutant, SEQ ID NO:21 (protein, listed as Homo sapiens)
chain: PIPDSSPLLQFGGQVRQRYLYTDDAQQTEAHLEIREDGTVGGAADQSPESLLQLRALRPGVIQILGVRTSRFLCQRPDGALYGSLHFDPEACSFRELLLEDGYNVYQSEAHGLPLHLPGNKSPHRDPAPRGPARFLPLPGLPPALPEPPGILAPQPPDVGSSDPLSMVGPSQGRSPSYAS
[1]; [9]
  EC50: 2.6 nM
[6]; [10]
  EC50: 1.7 nM

B4: FGF21: Fibroblast growth factor (FGF) 21, wild type (protein, listed as Homo sapiens)
chain: PIPDSSPLLQFGGQVRQRYLYTDDAQQTEAHLEIREDGTVGGAADQSPESLLQLKALKPGVIQILGVKTSRFLCQRPDGALYGSLHFDPEACSFRELLLEDGYNVYQSEAHGLPLHLPGNKSPHRDPAPRGPARFLPLPGLPPALPEPPGILAPQPPDVGSSDPLSMVGPSQGRSPSYAS
DIO mice; Day 7
  Mean Body Weight Change (g) (SEM): +1.4 g
DIO mice; OGTT Day 7
  Mean Glucose AUC (% of vehicle control): 99 % of vehicle control
[1]; Glut1 Taqman, 3T3-L1 adipocytes, 6 hrs, read-out: FGF21 (Glut1) EC50
  EC50: 2.1 nM

B5: FGF21ΔH-D79C: FGF21 cysteine mutant, SEQ ID NO:12 (protein, listed as Homo sapiens)
chain: PIPDSSPLLQFGGQVRQRYLYTDDAQQTEAHLEIREDGTVGGAADQSPESLLQLKALKPGVIQILGVKTSRFLCQRPCGALYGSLHFDPEACSFRELLLEDGYNVYQSEAHGLPLHLPGNKSPHRDPAPRGPARFLPLPGLPPALPEPPGILAPQPPDVGSSDPLSMVGPSQGRSPSYAS
ob/ob mice; ob/ob mice, single dose 10 mg/ml (so in the source)
  mean glucose AUC % during OGTT: 54%
[1]; [9]
  EC50: 2.1 nM
[4]; FIG. 6A, single dose 2 mg/kg
  Cumulative body weight change, mean body weight: 2.1 g
[8]; freeze (−80 C) and thaw (4° C.) 9 times, RP-HPLC, SEC and Ellman assay
  stability upon freeze/thaw cycles: Neither sample showed any difference between cycle 1 and cycles 9
[8]; neutral pH 7.4, 4° C., seven-day incubation
  stability (oxidation, dimerization): stable
[8]; pH 6.0, 4° C., three-day incubation
  portion oxidized: more than half

B6: FGF21ΔH-K56R-K59R-K69-K122R: FGF21 lysine mutant, SEQ ID NO:20 (protein, listed as Homo sapiens)
chain: PIPDSSPLLQFGGQVRQRYLYTDDAQQTEAHLEIREDGTVGGAADQSPESLLQLRALRPGVIQILGVKTSRFLCQRPDGALYGSLHFDPEACSFRELLLEDGYNVYQSEAHGLPLHLPGNRSPHRDPAPRGPARFLPLPGLPPALPEPPGILAPQPPDVGSSDPLSMVGPSQGRSPSYAS
[1]; [9]
  EC50: 1.3 nM
[6]; [10]
  EC50: 5.2 nM
